Reference: article PMC8858909 (Advances in biological regulation, 2021)

B1: GST-SNX1 residues 1-80 (domain or fragment, human, UniProt Q13596 1-80, looked up)
chain: MASGGGGCSASERLPPPFPGLEPESEGAAGGSEPEAGDSDTEGEDIFTGAAVVSKHQSPKITTSLLPINNGSKENGIHEE
B2: GST-SNX1 (residues 1-90) (domain or fragment, human, UniProt Q13596 1-90, looked up)
chain: MASGGGGCSASERLPPPFPGLEPESEGAAGGSEPEAGDSDTEGEDIFTGAAVVSKHQSPKITTSLLPINNGSKENGIHEEQDQEPQDLFA
B3: GST-SNX1 (residues 40-90) (domain or fragment, human, UniProt Q13596 40-90, looked up)
chain: DTEGEDIFTGAAVVSKHQSPKITTSLLPINNGSKENGIHEEQDQEPQDLFA
B4: GST-SNX1 residues 1-70 (domain or fragment, human, UniProt Q13596 1-70, looked up)
chain: MASGGGGCSASERLPPPFPGLEPESEGAAGGSEPEAGDSDTEGEDIFTGAAVVSKHQSPKITTSLLPINN
B5: GST-SNX2_N-terminal (1-139) (domain or fragment, human, UniProt O60749 1-139, looked up)
chain: MAAEREPPPLGDGKPTDFEDLEDGEDLFTSTVSTLESSPSSPEPASLPAEDISANSNGPKPTEVVLDDDREDLFAEATEEVSLDSPEREPILSSEPSPAVTPVTPTTLIAPRIESKSMSAPVIFDRSREEIEEEANGDI
B6: GST-SNX1 (residues 40-100) (domain or fragment, human, UniProt Q13596 40-100, looked up)
chain: DTEGEDIFTGAAVVSKHQSPKITTSLLPINNGSKENGIHEEQDQEPQDLFADATVELSLDS
B7: GST-SNX1 (residues 1-142) (domain or fragment, human, UniProt Q13596 1-142, looked up)
chain: MASGGGGCSASERLPPPFPGLEPESEGAAGGSEPEAGDSDTEGEDIFTGAAVVSKHQSPKITTSLLPINNGSKENGIHEEQDQEPQDLFADATVELSLDSTQNNQKKVLAKTLISLPPQEATNSSKPQPTYEELEEEEQEDQ
B8: GST-SNX1 residues 1-60 (domain or fragment, human, UniProt Q13596 1-60, looked up)
chain: MASGGGGCSASERLPPPFPGLEPESEGAAGGSEPEAGDSDTEGEDIFTGAAVVSKHQSPK

Columns and labels:
[1] = biological target: 6xHis-tagged full-length SNX27 (human, UniProt Q96L92 1-541); experiment: pull-down
[2] = biological target: untagged full-length SNX27 (human, UniProt Q96L92 1-541); experiment: ITC
[3] = biological target: untagged SNX27 FERM domain (human, UniProt Q96L92 273-525); experiment: ITC

Row | Binder | binding result [1] | further results
1 | DTEGEDIFTGAAVVSKHQSPKITTSLLPINN (domain or fragment, human, UniProt Q13596 40-70, looked up) [GST-SNX1 residues 40-70] | binds | 
2 | B1 | binds | 
3 | B2 | binds | 
4 | B3 | binds | 
5 | DTEGEDIFTGAAVVSKHQSPK (domain or fragment, human, UniProt Q13596 40-60, looked up) [GST-SNX1 residues 40-60] | binds | 
6 | B4 | binds | 
7 | B5 | binds | 
8 | B6 | binds | 
9 | B7 |  | Kd [2]: 10 to 12 µM; Kd [3]: 12 µM
10 | DTEGEDIFTGA [SNX1 peptide with the first DxF motif (residues 40-50, DIF)] |  | fold weaker than the SNX1 N-terminus [2]: ~2 fold; fold weaker than the SNX1 N-terminus [3]: ~2 fold
11 | DTEGEDIFTGAAVVSKHQSPKITTSLLPINNGSKENGIHEE (domain or fragment, human, UniProt Q13596 40-80, looked up) [GST-SNX1 residues 40-80] | binds | 
12 | EQDQEPQDLFA [SNX1 peptide with the second DxF motif (residues 80-90, DLF)] |  | binding result [2]: binds; binding result [3]: binds
13 | B8 | binds | 
